These are literature values, as cited in PMC5100577.

In the data set the target is H2A-H2B dimer (Saccharomyces cerevisiae) (UniProt P04911). Briefly: fluorescence dequenching.
UniProt P04911, sequence (P04911 2-132, chain 1 of 2): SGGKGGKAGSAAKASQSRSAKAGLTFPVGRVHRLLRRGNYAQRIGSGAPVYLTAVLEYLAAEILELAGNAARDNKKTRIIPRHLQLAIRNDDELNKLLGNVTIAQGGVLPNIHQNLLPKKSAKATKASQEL
UniProt P04911, sequence (P02293 2-131, chain 2 of 2, further chain): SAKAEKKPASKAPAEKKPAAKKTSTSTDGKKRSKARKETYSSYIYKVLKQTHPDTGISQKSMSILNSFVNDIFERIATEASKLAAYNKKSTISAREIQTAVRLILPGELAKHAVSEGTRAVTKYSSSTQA

Usually Kd stands for a measure of binding affinity in units of concentration. Regarding FACT (from UniProt P32558), the Kd is 21.4 nM.
